Changes are numbered by the printed parent chain. Blank lines part the entries; values can stand above or below the binder they belong to.
How the values were obtained:
[1] = target: recombinant mouse VEGF165 (mouse) (UniProt Q00731); assay: SPR (Biacore 2000); biotinylated VEGF165 on streptavidin chip, antibody injected 100-0.78 nM
[2] = target: VEGF (ATGEN, South Korea) coated on ELISA plates (UniProt P15692-4 27-191, limits assumed); assay: bridging ELISA: the signal needs binding to both coated VEGF and biotin-DLL4-hFc (2 ug/ml); antibody concentration varied
Sequence of VEGF (ATGEN, South Korea) coated on ELISA plates (P15692 other isoform, or with tags, fused parts or gaps limits assumed): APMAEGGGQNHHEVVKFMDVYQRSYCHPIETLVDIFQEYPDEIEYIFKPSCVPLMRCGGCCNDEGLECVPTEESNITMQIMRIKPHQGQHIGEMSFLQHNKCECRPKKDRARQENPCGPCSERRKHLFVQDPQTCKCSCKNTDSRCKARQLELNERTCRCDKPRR
Description: (§1) FIG. 5. Bispecific antibody ELISA. Bispecific antibodies 219R45-MB-21M18, 219R45-MB-21R79, 219R45-MB-21R75, and 219R45-MB-21R83 were diluted in blocking buffer (lx PBS, 0.1% gelatin, 0.1% Polysorbate-20, pH 7.4) containing 2 μg/ml biotin-DLL4-hFc. 219R45-MB-21M18 (open circles), 219R45-MB-21R79 (open squares), 219R45-MB-21R75 (open triangles), and 219R45-MB-21R83 (open diamonds) in comparison to a reference anti-VEGF/anti-DLL4 bispecific antibody (solid circles) is shown. The antibodies were serially diluted 3-fold from 500 ng/ml to 0.008 ng/ml. The antibody samples were incubated for 2 hours in blocking buffer containing the biotin-DLL4-hFc. After incubation, the antibody samples were transferred to a VEGF-coated assay plate (100 ul/well) and incubated for 2 hours. Streptavidin-HRP was added to each well and incubated for 1 hr. TMB substrate was added to the wells with a 10 minute color development and the reaction was stopped with 2M sulfuric acid. Absorbance was read at 450-650 nm and the data analyzed using the 4-parameter fit within the Softmax Pro analysis program.
(§2) VEGF (ATGEN, South Korea) was coated onto Nunc maxisorb plates at 2ug/ml (100 μl/well) and incubated overnight at 2-8° C. Bispecific antibodies 219R45-MB-21M18, 219R45-MB-21R79, 219R45-MB-21R75, and 219R45-MB-21RS3 were diluted in blocking buffer (1×PBS, 0.1% gelatin, 0.1% Polysorbate-20, pH 7.4) containing 2 μg/ml biotin-DLL4-hFc. The antibodies were serially diluted 3-fold from 500 ng/ml to 0.008 ng/ml. The antibody samples were incubated for 2 hours in blocking buffer containing the biotin-DLL4-hFc. After incubation, the antibody samples were transferred to the VEGF-coated assay plate (100 μl/well) and incubated for 2 hours. Streptavidin-HRP (Jackson ImmunoResearch, West Grove, Pa.) was added to each well and incubated for 1 hr. TMB substrate was added to the wells with a 10 minute color development and the reaction was stopped with 2M sulfuric acid. Absorbance was read at 450-650 nm and the data analyzed using the 4-parameter fit within the Softmax Pro analysis program (Molecular Devices, Sunnyvale, Calif.).

biotin-DLL4-hFc = target: T1, biotin-DLL4-hFc (UniProt Q9NR61 27-522, limits assumed, biotinylated); assay: as above
T1 construct: not shown: human Fc ('hFc')
T1 sequence (Q9NR61 27-522 limits assumed): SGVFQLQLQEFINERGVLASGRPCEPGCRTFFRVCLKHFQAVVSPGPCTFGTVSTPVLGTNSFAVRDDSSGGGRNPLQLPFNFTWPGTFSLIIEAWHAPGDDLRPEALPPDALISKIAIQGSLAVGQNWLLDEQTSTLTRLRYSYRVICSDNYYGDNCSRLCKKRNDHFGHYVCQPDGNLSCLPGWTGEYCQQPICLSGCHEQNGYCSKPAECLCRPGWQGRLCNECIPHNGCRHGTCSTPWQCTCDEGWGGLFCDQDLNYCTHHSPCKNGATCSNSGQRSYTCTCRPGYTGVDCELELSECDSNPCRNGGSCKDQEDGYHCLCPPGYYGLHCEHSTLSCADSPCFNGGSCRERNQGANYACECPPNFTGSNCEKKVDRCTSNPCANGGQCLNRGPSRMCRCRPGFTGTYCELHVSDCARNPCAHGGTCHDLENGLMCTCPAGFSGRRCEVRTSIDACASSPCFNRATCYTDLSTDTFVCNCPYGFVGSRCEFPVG
Description: as §1, §2

Kd [1]: 22.9 nM
B1: anti-VEGF antibody 219R45 (parental, IgG format) (antibody, V domains shown)
VH: QVQLVQSGAEVKKPGASVKVSCKASGYTFTNYWMHWVRQAPGQGLEWMGDINPSNGRTSYKEKFKRRVTLSVDKSSSTAYMELSSLRSEDTAVYFCTIHYDDKYYPLMDYWGQGTLVTVSS
VL: DIVMTQSPDSLAVSLGERATISCRASESVDNYGISFMKWFQQKPGQPPKLLIYAASNQGSGVPDRFSGSGSGTDFTLTISSLQAEDVAVYYCQQSKEVPWTFGGGTKVEIKR

EC50 (read off the curve) [2]: ~4 ng/mL | EC50 (read off the curve) (biotin-DLL4-hFc): ~4 ng/mL | Kd [1]: 25.5 nM
B2: anti-VEGF/anti-DLL4 bispecific antibody 219R45-MB-21M18 (bispecific antibody, human IgG2)
heavy 1: QVQLVQSGAEVKKPGASVKVSCKASGYTFTNYWMHWVRQAPGQGLEWMGDINPSNGRTSYKEKFKRRVTLSVDKSSSTAYMELSSLRSEDTAVYFCTIHYDDKYYPLMDYWGQGTLVTVSSASTKGPSVFPLAPCSRSTSESTAALGCLVKDYFPEPVTVSWNSGALTSGVHTFPAVLQSSGLYSLSSVVTVPSSNFGTQTYTCNVDHKPSNTKVDKTVERKCCVECPPCPAPPVAGPSVFLFPPKPKDTLMISRTPEVTCVVVDVSHEDPEVQFNWYVDGVEVHNAKTKPREEQFNSTFRVVSVLTVVHQDWLNGKEYKCKVSNKGLPAPIEKTISKTKGQPREPQVYTLPPSREKMTKNQVSLTCLVKGFYPSDIAVEWESNGQPENNYKTTPPMLKSDGSFFLYSKLTVDKSRWQQGNVFSCSVMHEALHNHYTQKSLSLSPGK
heavy 2: QVQLVQSGAEVKKPGASVKISCKASGYSFTAYYIHWVKQAPGQGLEWIGYISSYNGATNYNQKFKGRVTFTTDTSTSTAYMELRSLRSDDTAVYYCARDYDYDVGMDYWGQGTLVTVSSASTKGPSVFPLAPCSRSTSESTAALGCLVKDYFPEPVTVSWNSGALTSGVHTFPAVLQSSGLYSLSSVVTVPSSNFGTQTYTCNVDHKPSNTKVDKTVERKCCVECPPCPAPPVAGPSVFLFPPKPKDTLMISRTPEVTCVVVDVSHEDPEVQFNWYVDGVEVHNAKTKPREEQFNSTFRVVSVLTVVHQDWLNGKEYKCKVSNKGLPAPIEKTISKTKGQPREPQVYTLPPSREEMTKNQVSLTCLVEGFYPSDIAVEWESNGQPENNYKTTPPMLDSDGSFFLYSELTVDKSRWQQGNVFSCSVMHEALHNHYTQKSLSLSPGK
light: DIVMTQSPDSLAVSLGERATISCRASESVDNYGISFMKWFQQKPGQPPKLLIYAASNQGSGVPDRFSGSGSGTDFTLTISSLQAEDVAVYYCQQSKEVPWTFGGGTKVEIKRTVAAPSVIFPPSDEQLKSGTASVVCLLNNFYPREAKVQWKVDNALQSGNSQESVTEQDSKDSTYSLSSTLTLSKADYEKHKVYACEVTHQGLSSPVTKSFNRGEC

Kd [1]: 12.5 nM
B3: anti-VEGF/anti-DLL4 bispecific antibody 219R45-MB-21R79 (bispecific antibody, human IgG2)
heavy 1: B2 heavy 1
heavy 2: B2 heavy 2 with S52A, S53N, G56R
light: B2 light

EC50 (read off the curve) [2]: ~0.7 ng/mL | EC50 (read off the curve) (biotin-DLL4-hFc): ~0.7 ng/mL
B4: anti-VEGF/anti-DLL4 bispecific antibody 219R45-MB-21R75 (bispecific antibody, human IgG2)
heavy 1: B2 heavy 1
heavy 2: B2 heavy 2 with S52A, S53G, N55K, G56D
light: B2 light
notes: Monovalent/bispecific IgG2 heterodimer
